We go through 2 molecules from US20250325643A1 (Genmab, published 2025).

In test [1] the target is T1, recombinant His-tagged human FcγRIIIa 176-Val (Sino Biological, Cat #10389-H27H1-B) (human, UniProt P08637 17-208).
T1 construct: Bought protein; also called FcγRIIIa-V; FcγRIIIa (176-Val [V]); not shown: His tag
As to the kind of experiment: SPR (Biacore): His-tagged FcγRIIIa-V captured on an anti-His chip, antibody injected. Background: Surface plasmon resonance follows binding to a sensor surface in real time, without labels.

The target of test [2] is T2, human CD27 expressed on cells (T cells, transfected HEK293F cells, Daudi cells, NFκB-luc2/CD27 Jurkat … (human, UniProt P26842 20-240)).
T2 construct: also called TNFRSF7
T2 sequence: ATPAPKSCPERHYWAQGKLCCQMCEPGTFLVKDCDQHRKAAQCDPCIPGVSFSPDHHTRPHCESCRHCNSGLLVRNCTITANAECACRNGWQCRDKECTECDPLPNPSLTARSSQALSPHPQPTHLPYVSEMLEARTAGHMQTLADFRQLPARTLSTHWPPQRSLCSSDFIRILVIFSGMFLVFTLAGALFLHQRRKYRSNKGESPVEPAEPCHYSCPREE
As to the kind of experiment: flow cytometry on CD8+ T cells in human PBMC, FITC-conjugated goat anti-human IgG F(ab')2, median FITC. Here is the method:
(§1) Binding of IgG1-CD27-A-P329R-E345R to CD27 on human healthy donor T cells was characterized in more detail using flow cytometry. Anti-HIV gp120 antibody variant IgG1-b12-P329R-E345R was used as non-binding control antibody (ctrl). Human PBMCs were isolated from buffy coats obtained from human healthy donors. PBMCs (1×10⁵ cells/well) in FACS buffer were added to polystyrene 96-well round-bottom plates (Greiner bio-one, Cat #650101) and pelleted by centrifugation at 300×g for 3 min at 4° C. The cells were resuspended in 50 μL/well serial antibody dilutions in FACS buffer (range 0.0015 to 10 μg/mL in 3-fold dilution steps) and incubated for 30 min at 4° C. Cells were pelleted, washed twice with FACS buffer and incubated in 50 μL/well with FITC-conjugated secondary antibody (FITC AffiniPure F(ab′)₂ fragment goat anti-human IgG, F(ab′)₂ fragment specific, Jackson ImmunoResearch, Cat #109-096-097, diluted 1:100) for 30 min at 4° C. in the dark. […] The samples were measured by flow cytometry on an LSRFortessa (BD) flow cytometer and analyzed using FlowJo software. Binding curves were analyzed using non-linear regression (sigmoidal dose-response with variable slope) using GraphPad Prism 8 software.

Test [3] concerns the target T3, recombinant His-tagged human FcγRIa (Sino Biological, Cat #10256-H08S-B) (human, UniProt P12314 16-288).
T3 construct: Bought protein; not shown: His tag
As to the kind of experiment: SPR (Biacore): His-tagged FcγRIa captured on an anti-His chip, antibody injected; resonance units against antibody concentration. Here is the method: Binding of IgG1-CD27-A-P329R-E345R to human FcγR variants was analyzed using a Biacore surface plasmon resonance (SPR) system and compared to an anti-HIV gp120 antibody IgG1-b12 (ctrl). Biacore Series S Sensor Chips CM5 (Cytiva, Cat #29104988) were covalently coated with anti-His antibody using amine-coupling and His capture kits (Cytiva, Cat #BR100050 and Cat #29234602) according to the manufacturer's instructions. […] After three cycles of buffer, antibody samples were injected for 36 cycles to generate binding curves using antibody ranges of 0-3,000 nM for FcγRI and 0-10,000 nM for the other FcγRs. Each sample that was analyzed on an FcR-coated surface (Active Surface) was also analyzed on a parallel flow-cell without FcR (Reference Surface), which was used for background correction. Dissociation from the anti-His-coated surface was performed by regeneration of the surface using 10 mM Glycine-HCl pH 1.5 (Cytiva, Cat #BR100354). Sensograms were generated using Biacore Insight Evaluation software (Cytiva) and a four-parameter logistic (4PL) fit was applied to calculate relative binding of IgG1-CD27-A-P329R-E345R against the reference sample (ctrl).

The target in test [4] is T4, recombinant His-tagged human FcγRIIa 167-Arg (Sino Biological, Cat #10374-H27H1-B) (human, UniProt P12318 34-218).
T4 construct: Bought protein; also called FcγRIIa-R; FcγRIIa (167-Arg [R]); not shown: His tag
T4 sequence (looked up): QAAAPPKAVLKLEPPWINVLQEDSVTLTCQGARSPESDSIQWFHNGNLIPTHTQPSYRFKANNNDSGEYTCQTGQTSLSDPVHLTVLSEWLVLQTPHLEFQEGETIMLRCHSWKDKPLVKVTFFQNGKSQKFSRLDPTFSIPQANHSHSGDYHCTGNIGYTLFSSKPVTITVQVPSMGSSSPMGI
As to the kind of experiment: SPR (Biacore): His-tagged FcγRIIa-R captured on an anti-His chip, antibody injected.

Test [5] concerns the target T5, human C1q (from normal human serum) (human, UniProt P02745 23-245; P02746 28-253; P02747 29-245).
T5 construct: 20% normal human serum was the source of C1q
As to the kind of experiment: flow cytometry: human T cells opsonised with the antibody, 20% normal human serum as source of C1q, FITC-labelled rabbit anti-human C1q. On the technique in general: Flow cytometry measures light scatter and fluorescence of single cells or particles in a stream.

Test [6] deals with T6, recombinant His-tagged human FcγRIIa 167-His (Sino Biological, Cat #10374-H27H) (human, UniProt P12318 34-218).
T6 construct: Bought protein; also called FcγRIIa-H; FcγRIIa (167-His [H]); not shown: His tag
T6 sequence (looked up): T4 sequence (looked up) with R134H
As to the kind of experiment: SPR (Biacore): His-tagged FcγRIIa-H captured on an anti-His chip, antibody injected.

Test [7] has as its target T7, recombinant His-tagged human FcγRIIb (Sino Biological, Cat #10259-H27H-B) (human, UniProt P31994 43-217).
T7 construct: Bought protein; not shown: His tag
T7 sequence (looked up): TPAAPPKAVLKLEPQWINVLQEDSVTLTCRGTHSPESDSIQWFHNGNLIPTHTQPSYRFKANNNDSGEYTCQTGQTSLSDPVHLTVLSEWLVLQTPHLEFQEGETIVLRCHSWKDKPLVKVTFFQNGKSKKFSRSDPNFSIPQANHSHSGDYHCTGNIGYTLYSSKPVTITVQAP
As to the kind of experiment: SPR (Biacore): His-tagged FcγRIIb captured on an anti-His chip, antibody injected.

Test [8] deals with T2, human CD27 expressed on cells (T cells, …). As to the kind of experiment: flow cytometry on CD4+ T cells in human PBMC, FITC-conjugated goat anti-human IgG F(ab')2, median FITC. The procedure:
as §1

Test [9] has as its target T8, recombinant His-tagged human FcγRIIIa 176-Phe (Sino Biological, Cat #10389-H27H-B) (human, UniProt P08637 17-208).
T8 construct: Bought protein; also called FcγRIIIa-F; FcγRIIIa (176-Phe [F]); not shown: His tag
As to the kind of experiment: SPR (Biacore): His-tagged FcγRIIIa-F captured on an anti-His chip, antibody injected.

Test [10] concerns the target T9, cynomolgus monkey CD27 expressed on cells (cynomolgus monkey T cells, transfected HEK293F cells) (cynomolgus monkey, UniProt P26842 20-260 (human entry)).
T9 construct: also called cyno CD27
T9 chain: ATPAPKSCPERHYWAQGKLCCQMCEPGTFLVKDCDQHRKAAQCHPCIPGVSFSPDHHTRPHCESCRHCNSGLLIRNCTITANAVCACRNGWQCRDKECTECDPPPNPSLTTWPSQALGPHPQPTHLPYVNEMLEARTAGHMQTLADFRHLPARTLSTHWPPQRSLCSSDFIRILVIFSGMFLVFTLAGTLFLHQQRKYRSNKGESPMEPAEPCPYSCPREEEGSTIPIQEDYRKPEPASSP
As to the kind of experiment: flow cytometry on T cells in cynomolgus monkey PBMC, PE-labelled goat anti-human IgG, median MFI PE.

Test [11] addresses T2, human CD27 expressed on cells (T cells, …). As to the kind of experiment: flow cytometry on T cells in human PBMC, PE-labelled goat anti-human IgG, median MFI PE.

Positions count from the first letter of the chain named. Names may count otherwise.

T3 sequence (P12314 16-288 limits assumed, stated change not applied): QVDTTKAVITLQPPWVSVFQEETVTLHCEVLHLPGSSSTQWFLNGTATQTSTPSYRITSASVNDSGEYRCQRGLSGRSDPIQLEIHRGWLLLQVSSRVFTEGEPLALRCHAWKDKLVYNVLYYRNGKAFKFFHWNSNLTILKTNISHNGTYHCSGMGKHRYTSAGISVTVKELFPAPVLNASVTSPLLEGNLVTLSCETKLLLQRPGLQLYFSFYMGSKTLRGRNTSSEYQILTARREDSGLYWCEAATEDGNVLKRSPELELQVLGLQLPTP
T5 sequence (P02745 23-245 limits assumed, chain 1 of 3): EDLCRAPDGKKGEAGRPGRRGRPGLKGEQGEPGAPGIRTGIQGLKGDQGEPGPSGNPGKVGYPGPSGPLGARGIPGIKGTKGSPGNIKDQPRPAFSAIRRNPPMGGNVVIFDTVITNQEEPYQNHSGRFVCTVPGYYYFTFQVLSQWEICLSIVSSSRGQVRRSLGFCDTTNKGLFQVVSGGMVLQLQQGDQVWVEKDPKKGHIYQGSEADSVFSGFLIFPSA
T5 sequence (P02746 28-253 limits assumed, chain 2 of 3): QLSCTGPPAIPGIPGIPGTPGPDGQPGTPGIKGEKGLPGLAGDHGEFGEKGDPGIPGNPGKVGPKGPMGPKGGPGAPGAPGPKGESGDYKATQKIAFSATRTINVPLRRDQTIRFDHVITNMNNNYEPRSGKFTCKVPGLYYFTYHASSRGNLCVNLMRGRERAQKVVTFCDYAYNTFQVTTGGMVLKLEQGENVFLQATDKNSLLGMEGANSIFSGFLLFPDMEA
T5 sequence (P02747 29-245 limits assumed, chain 3 of 3): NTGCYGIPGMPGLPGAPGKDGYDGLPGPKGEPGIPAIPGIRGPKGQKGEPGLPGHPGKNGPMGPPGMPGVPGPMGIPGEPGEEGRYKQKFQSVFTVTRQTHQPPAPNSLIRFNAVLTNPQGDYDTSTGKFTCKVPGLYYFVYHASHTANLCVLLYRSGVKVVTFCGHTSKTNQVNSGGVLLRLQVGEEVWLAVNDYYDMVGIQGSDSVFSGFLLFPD
T8 sequence (P08637 17-208 limits assumed): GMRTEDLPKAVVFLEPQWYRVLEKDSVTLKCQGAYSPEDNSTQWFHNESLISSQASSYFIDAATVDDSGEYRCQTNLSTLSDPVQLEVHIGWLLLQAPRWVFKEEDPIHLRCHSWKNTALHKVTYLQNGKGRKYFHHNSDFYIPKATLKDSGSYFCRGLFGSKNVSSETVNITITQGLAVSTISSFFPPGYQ
T1 sequence (P08637 17-208 F176V limits assumed): as the sequence (P08637 17-208 limits assumed) above, with F160V counted along it

B1: IgG1-CD27-A-P329R-E345R (antibody)
heavy: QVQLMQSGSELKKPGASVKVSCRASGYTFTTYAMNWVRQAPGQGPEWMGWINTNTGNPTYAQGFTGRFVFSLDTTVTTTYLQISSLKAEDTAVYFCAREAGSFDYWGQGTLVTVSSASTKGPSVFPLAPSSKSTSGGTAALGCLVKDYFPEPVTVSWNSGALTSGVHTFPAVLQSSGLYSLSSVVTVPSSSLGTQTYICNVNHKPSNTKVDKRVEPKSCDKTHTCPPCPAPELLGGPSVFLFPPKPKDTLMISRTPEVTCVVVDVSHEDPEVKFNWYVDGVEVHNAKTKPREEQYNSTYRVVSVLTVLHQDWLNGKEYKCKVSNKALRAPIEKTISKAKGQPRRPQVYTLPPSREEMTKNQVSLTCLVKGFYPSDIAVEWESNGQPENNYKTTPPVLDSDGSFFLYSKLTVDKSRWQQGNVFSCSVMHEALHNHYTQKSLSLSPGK
light: QSALTQPASVSGSPGQSITISCTGTSSDVYYYNYVSWYQQHPGRAPKLVIYDVSNRPSGVSNRFSGSKSGNTASLTISGLRAEDEADYYCSSYTVNRVWVFGGGTKLTVLGQPKAAPSVTLFPPSSEELQANKATLVCLISDFYPGAVTVAWKADSSPVKAGVETTTPSKQSNNKYAASSYLSLTPEQWKSHRSYSCQVTHEGSTVEKTVAPTECS
notes: also called IgG1-CD27-A-E345R-P329R
For the molecule B1, the binding result in test [1] is recorded as “no binding (tested: 10,000 nM)”; in test [3], “binds”; in test [4], “no binding (tested: 10,000 nM)”; in test [5], “no binding (tested: 15 µg/mL)”; in [6], “no binding (tested: 10,000 nM)”; in [7], “no binding (tested: 10,000 nM)”. In addition, the binding result in [9] is recorded as “no binding (tested: 10,000 nM)”. Besides, the “EC50 (read off the curve)” value in test [2] and in test [8] was ~0.03 µg/mL throughout.

B2: IgG1-b12-FEAR (antibody, V domains shown)
VH: QVQLVQSGAEVKKPGASVKVSCQASGYRFSNFVIHWVRQAPGQRFEWMGWINPYNGNKEFSAKFQDRVTFTADTSANTAYMELRSLRSADTAVYYCARVGPYSWDDSPQDNYYMDVWGKGTTVIVSS
VL: EIVLTQSPGTLSLSPGERATFSCRSSHSIRSRRVAWYQHKPGQAPRLVIHGVSNRASGISDRFSGSGSGTDFTLTITRVEPEDFALYYCQVYGASSYTFGQGTKLERK
notes: also called ctrl; anti-HIV-gp120 antibody IgG1-b12-FEAR
Take B2: the binding result in test [10] and in test [11] was “no binding (tested: 10 µg/mL)” in each case.
